Measurements: patent US20180094059A1 (UNIVERSITAT STUTTGART, published 2018)

Assays:
[1] = target: T1, EGFR on EGFR-positive tumor cell lines (UniProt P00533 25-1210, limits assumed); assay: cell-based or functional assay
[2] = target: T1, EGFR on EGFR-positive tumor cell lines; assay: flow cytometry, HCT116 cells
[3] = target: T1, EGFR on EGFR-positive tumor cell lines; assay: flow cytometry, Colo205 cells
EGFR-Fc = target: T2, EGFR-Fc (UniProt P00533 25-645); assay: ELISA, EGFR-Fc
T2 construct: also called purified EGFR-Fc; not shown: Fc part

[4] = target: fibroblast activation protein (FAP) on transfected HT1080 cells (UniProt Q12884 1-760, limits assumed); assay: cell-based or functional assay

B1: scFvhu225-EHD2-scTRAIL3-FLVGGGPQRVA (other)
chain: DYKDDDDKGGGGSGTEVQLVESGGGLVQPGGSLRLSCAASGFSLTNYGVHWVRQAPGKGLEWLGVIWSGGNTDYNTPFTSRFTISRDNSKNTLYLQMNSLRAEDTAVYYCARALTYYDYEFAYWGQGTTVTVSSGGGGSGGGGSGGGGSDIQLTQSPSFLSASVGDRVTITCRASQSIGTNIHWYQQKPGKAPKLLIKYASESISGVPSRFSGSGSGTEFTLTISSLQPEDFATYYCQQNNNWPTTFGAGTKLEIKRAAAGGSGGDFTPPTVKILQSSCDGGGHFPPTIQLLCLVSGYTPGTINITWLEDGQVMDVDLSTASTTQEGELASTQSELTLSQKHWLSDRTYTCQVTYQGHTFEDSTKKCADSNGGSGGASSGGGPQRVAAHITGTRGRSNTLSSPNSKNEKALGRKINSWESSRSGHSFLSNLHLRNGELVIHEKGFYYIYSQTYFRFQEEIKENTKNDKQMVQYIYKYTSYPDPILLMKSARNSCWSKDAEYGLYSIYQGGIFELKENDRIFVSVTNEHLIDMDHEASFFGAFLVGGGPQRVAAHITGTRGRSNTLSSPNSKNEKALGRKINSWESSRSGHSFLSNLHLRNGELVIHEKGFYYIYSQTYFRFQEEIKENTKNDKQMVQYIYKYTSYPDPILLMKSARNSCWSKDAEYGLYSIYQGGIFELKENDRIFVSVTNEHLIDMDHEASFFGAFLVGGGPQRVAAHITGTRGRSNTLSSPNSKNEKALGRKINSWESSRSGHSFLSNLHLRNGELVIHEKGFYYIYSQTYFRFQEEIKENTKNDKQMVQYIYKYTSYPDPILLMKSARNSCWSKDAEYGLYSIYQGGIFELKENDRIFVSVTNEHLIDMDHEASFFGAFLVG
[1]
  EC50 of cell death induction, Colo205, with Bortezomib: 0.0018 nM
  EC50 of cell death induction, Colo205, without bortezomib: 0.0119 nM
  EC50 of cell death induction, Colo205 in presence of Cetuximab, with bortezomib: 0.0067 nM
  EC50 of cell death induction, Colo205 in presence of Cetuximab, without bortezomib: 0.0693 nM

B2: anti-EGFR IgG LC-scTRAIL3-FAVSGAA (other)
heavy: ASDYKDDDDKGAEVQLVESGGGLVQPGGSLRLSCAASGFSLTNYGVHWVRQAPGKGLEWLGVIWSGGNTDYNTPFTSRFTISRDNSKNTLYLQMNSLRAEDTAVYYCARALTYYDYEFAYWGQGTTVTVSSASTKGPSVFPLAPSSKSTSGGTAALGCLVKDYFPEPVTVSWNSGALTSGVHTFPAVLQSSGLYSLSSVVTVPSSSLGTQTYICNVNHKPSNTKVDKKVEPKSCDKTHTCPPCPAPPVAGPSVFLFPPKPKDTLMISRTPEVTCVVVDVSHEDPEVKFNWYVDGVEVHNAKTKPREEQYNSTYRVVSVLTVLHQDWLNGKEYKCKVSNKGLPSSIEKTISKAKGQPREPQVYTLPPSRDELTKNQVSLTCLVKGFYPSDIAVEWESNGQPENNYKTTPPVLDSDGSFFLYSKLTVDKSRWQQGNVFSCSVMHEALHNHYTQKSLSLSPGK
light: DIQLTQSPSFLSASVGDRVTITCRASQSIGTNIHWYQQKPGKAPKLLIKYASESISGVPSRFSGSGSGTEFTLTISSLQPEDFATYYCQQNNNWPTTFGAGTKLEIKRTVAAPSVFIFPPSDEQLKSGTASVVCLLNNFYPREAKVQWKVDNALQSGNSQESVTEQDSKDSTYSLSSTLTLSKADYEKHKVYACEVTHQGLSSPVTKSFNRGECAAGNGTSNGTSEFGGAAAHITGTRGRSNTLSSPNSKNEKALGRKINSWESSRSGHSFLSNLHLRNGELVIHEKGFYYIYSQTYFRFQEEIKENTKNDKQMVQYIYKYTSYPDPILLMKSARNSCWSKDAEYGLYSIYQGGIFELKENDRIFVSVTNEHLIDMDHEASFFGAFAVSGAAAHITGTRGRSNTLSSPNSKNEKALGRKINSWESSRSGHSFLSNLHLRNGELVIHEKGFYYIYSQTYFRFQEEIKENTKNDKQMVQYIYKYTSYPDPILLMKSARNSCWSKDAEYGLYSIYQGGIFELKENDRIFVSVTNEHLIDMDHEASFFGAFAVSGAAAHITGTRGRSNTLSSPNSKNEKALGRKINSWESSRSGHSFLSNLHLRNGELVIHEKGFYYIYSQTYFRFQEEIKENTKNDKQMVQYIYKYTSYPDPILLMKSARNSCWSKDAEYGLYSIYQGGIFELKENDRIFVSVTNEHLIDMDHEASFFGAFAVS
notes: scTRAIL3-FAVSGAA at the C-terminus of the kappa light chain through a 15 aa peptide with two N-glycosylation sites; also called IgG-light chain (LC)-scTRAIL3
[2]
  EC50: 0.181 nM
[3]
  EC50: 0.148 nM
EGFR-Fc
  EC50: 0.46 nM

B3: anti-EGFR IgG LC/HC-scTRAIL3-FAVSGAA (other)
heavy: ASDYKDDDDKGAEVQLVESGGGLVQPGGSLRLSCAASGFSLTNYGVHWVRQAPGKGLEWLGVIWSGGNTDYNTPFTSRFTISRDNSKNTLYLQMNSLRAEDTAVYYCARALTYYDYEFAYWGQGTTVTVSSASTKGPSVFPLAPSSKSTSGGTAALGCLVKDYFPEPVTVSWNSGALTSGVHTFPAVLQSSGLYSLSSVVTVPSSSLGTQTYICNVNHKPSNTKVDKKVEPKSCDKTHTCPPCPAPPVAGPSVFLFPPKPKDTLMISRTPEVTCVVVDVSHEDPEVKFNWYVDGVEVHNAKTKPREEQYNSTYRVVSVLTVLHQDWLNGKEYKCKVSNKGLPSSIEKTISKAKGQPREPQVYTLPPSRDELTKNQVSLTCLVKGFYPSDIAVEWESNGQPENNYKTTPPVLDSDGSFFLYSKLTVDKSRWQQGNVFSCSVMHEALHNHYTQKSLSLSPGKAAGNGTSNGTSEFGGAAAHITGTRGRSNTLSSPNSKNEKALGRKINSWESSRSGHSFLSNLHLRNGELVIHEKGFYYIYSQTYFRFQEEIKENTKNDKQMVQYIYKYTSYPDPILLMKSARNSCWSKDAEYGLYSIYQGGIFELKENDRIFVSVTNEHLIDMDHEASFFGAFAVSGAAAHITGTRGRSNTLSSPNSKNEKALGRKINSWESSRSGHSFLSNLHLRNGELVIHEKGFYYIYSQTYFRFQEEIKENTKNDKQMVQYIYKYTSYPDPILLMKSARNSCWSKDAEYGLYSIYQGGIFELKENDRIFVSVTNEHLIDMDHEASFFGAFAVSGAAAHITGTRGRSNTLSSPNSKNEKALGRKINSWESSRSGHSFLSNLHLRNGELVIHEKGFYYIYSQTYFRFQEEIKENTKNDKQMVQYIYKYTSYPDPILLMKSARNSCWSKDAEYGLYSIYQGGIFELKENDRIFVSVTNEHLIDMDHEASFFGAFAVS
light: DIQLTQSPSFLSASVGDRVTITCRASQSIGTNIHWYQQKPGKAPKLLIKYASESISGVPSRFSGSGSGTEFTLTISSLQPEDFATYYCQQNNNWPTTFGAGTKLEIKRTVAAPSVFIFPPSDEQLKSGTASVVCLLNNFYPREAKVQWKVDNALQSGNSQESVTEQDSKDSTYSLSSTLTLSKADYEKHKVYACEVTHQGLSSPVTKSFNRGECAAGNGTSNGTSEFGGAAAHITGTRGRSNTLSSPNSKNEKALGRKINSWESSRSGHSFLSNLHLRNGELVIHEKGFYYIYSQTYFRFQEEIKENTKNDKQMVQYIYKYTSYPDPILLMKSARNSCWSKDAEYGLYSIYQGGIFELKENDRIFVSVTNEHLIDMDHEASFFGAFAVSGAAAHITGTRGRSNTLSSPNSKNEKALGRKINSWESSRSGHSFLSNLHLRNGELVIHEKGFYYIYSQTYFRFQEEIKENTKNDKQMVQYIYKYTSYPDPILLMKSARNSCWSKDAEYGLYSIYQGGIFELKENDRIFVSVTNEHLIDMDHEASFFGAFAVSGAAAHITGTRGRSNTLSSPNSKNEKALGRKINSWESSRSGHSFLSNLHLRNGELVIHEKGFYYIYSQTYFRFQEEIKENTKNDKQMVQYIYKYTSYPDPILLMKSARNSCWSKDAEYGLYSIYQGGIFELKENDRIFVSVTNEHLIDMDHEASFFGAFAVS
notes: scTRAIL3-FAVSGAA on both light and heavy chains (tetrameric form)
[2]
  EC50: 0.091 nM
[3]
  EC50: 0.146 nM
EGFR-Fc
  EC50: 0.315 nM

B4: anti-EGFR IgG HC-scTRAIL3-FAVSGAA (other)
heavy: ASDYKDDDDKGAEVQLVESGGGLVQPGGSLRLSCAASGFSLTNYGVHWVRQAPGKGLEWLGVIWSGGNTDYNTPFTSRFTISRDNSKNTLYLQMNSLRAEDTAVYYCARALTYYDYEFAYWGQGTTVTVSSASTKGPSVFPLAPSSKSTSGGTAALGCLVKDYFPEPVTVSWNSGALTSGVHTFPAVLQSSGLYSLSSVVTVPSSSLGTQTYICNVNHKPSNTKVDKKVEPKSCDKTHTCPPCPAPPVAGPSVFLFPPKPKDTLMISRTPEVTCVVVDVSHEDPEVKFNWYVDGVEVHNAKTKPREEQYNSTYRVVSVLTVLHQDWLNGKEYKCKVSNKGLPSSIEKTISKAKGQPREPQVYTLPPSRDELTKNQVSLTCLVKGFYPSDIAVEWESNGQPENNYKTTPPVLDSDGSFFLYSKLTVDKSRWQQGNVFSCSVMHEALHNHYTQKSLSLSPGKAAGNGTSNGTSEFGGAAAHITGTRGRSNTLSSPNSKNEKALGRKINSWESSRSGHSFLSNLHLRNGELVIHEKGFYYIYSQTYFRFQEEIKENTKNDKQMVQYIYKYTSYPDPILLMKSARNSCWSKDAEYGLYSIYQGGIFELKENDRIFVSVTNEHLIDMDHEASFFGAFAVSGAAAHITGTRGRSNTLSSPNSKNEKALGRKINSWESSRSGHSFLSNLHLRNGELVIHEKGFYYIYSQTYFRFQEEIKENTKNDKQMVQYIYKYTSYPDPILLMKSARNSCWSKDAEYGLYSIYQGGIFELKENDRIFVSVTNEHLIDMDHEASFFGAFAVSGAAAHITGTRGRSNTLSSPNSKNEKALGRKINSWESSRSGHSFLSNLHLRNGELVIHEKGFYYIYSQTYFRFQEEIKENTKNDKQMVQYIYKYTSYPDPILLMKSARNSCWSKDAEYGLYSIYQGGIFELKENDRIFVSVTNEHLIDMDHEASFFGAFAVS
light: DIQLTQSPSFLSASVGDRVTITCRASQSIGTNIHWYQQKPGKAPKLLIKYASESISGVPSRFSGSGSGTEFTLTISSLQPEDFATYYCQQNNNWPTTFGAGTKLEIKRTVAAPSVFIFPPSDEQLKSGTASVVCLLNNFYPREAKVQWKVDNALQSGNSQESVTEQDSKDSTYSLSSTLTLSKADYEKHKVYACEVTHQGLSSPVTKSFNRGEC
notes: scTRAIL3-FAVSGAA at the C-terminus of the heavy chain; also called IgG-heavy chain (HC)-scTRAIL3
[2]
  EC50: 0.118 nM
[3]
  EC50: 0.081 nM
EGFR-Fc
  EC50: 0.343 nM

B5: Db anti-FAP-Glyco-scTRAIL3-FAVSGAA (other)
chain: LEASDYKDDDDKGTGQVQLVQSGAEVKKPGASVKVSCKASGYTFTENIIHWVRQAPGQGLEWMGWFHPGSGSIKYNEKFKDRVTMTADTSTSTVYMELSSLRSEDTAVYYCARHGGTGRGAMDYWGQGTLVTVSSGGGGSDIQMTQSPSSLSASVGDRVTITCRASKSVSTSAYSYMHWYQQKPGKAPKLLIYLASNLESGVPSRFSGSGSGTDFTLTISSLQPEDFATYYCQHSRELPYTFGQGTKLEIKRAAAGNGTSNGTSEFGGAAAHITGTRGRSNTLSSPNSKNEKALGRKINSWESSRSGHSFLSNLHLRNGELVIHEKGFYYIYSQTYFRFQEEIKENTKNDKQMVQYIYKYTSYPDPILLMKSARNSCWSKDAEYGLYSIYQGGIFELKENDRIFVSVTNEHLIDMDHEASFFGAFAVSGAAAHITGTRGRSNTLSSPNSKNEKALGRKINSWESSRSGHSFLSNLHLRNGELVIHEKGFYYIYSQTYFRFQEEIKENTKNDKQMVQYIYKYTSYPDPILLMKSARNSCWSKDAEYGLYSIYQGGIFELKENDRIFVSVTNEHLIDMDHEASFFGAFAVSGAAAHITGTRGRSNTLSSPNSKNEKALGRKINSWESSRSGHSFLSNLHLRNGELVIHEKGFYYIYSQTYFRFQEEIKENTKNDKQMVQYIYKYTSYPDPILLMKSARNSCWSKDAEYGLYSIYQGGIFELKENDRIFVSVTNEHLIDMDHEASFFGAFAVS
modifications: 16 aa peptide linker with two N-glycosylation sites
[4]
  EC50 of cytotoxicity on HT1080 FAP+ cells, competing with excess anti-FAP IgG: 0.04 nM
  EC50 of cytotoxicity on HT1080 FAP+ cells, with bortezomib, competing conditions: 0.0041 nM
  EC50 of cytotoxicity on HT1080 FAP+ cells, with bortezomib, non-competing conditions: 0.002 nM
  EC50 of cytotoxicity on HT1080 FAP+ cells, without αFAP IgG: 0.029 nM
